From PMC3897377, “Utilizing Nanobody Technology to Target Non-Immunodominant Domains of VAR2CSA” (PLoS ONE, 2014)
Numbering of substitutions follows the chain as printed.

B1: Nb03 (VHH)
VHH: QVQLQESGGGLVQAGGSLRLSCVVSGHTFSGYVMGWFRQAPGKEREFVSSISGYGGITDYADSVKGRFTMSRDNAKNTVYLRMNSLKPEDTAVYYCAVRRSGSSREYDYWGQGTQVTVSS
notes: from an alpaca immunized with full-length VAR2CSA; pHEN6c vector; also called Nanobody 03; VHH; source: E. coli WK6, periplasmic extract, purified (HisTrap); not shown: His6, C-terminal, kept
B2: Nb14 (VHH)
VHH: QVQLQESGGGLVQAGGSLRLSCAASGFTLDDYGIGWFRQAPGKEHEGVSSISSGDGSTYYADSVKGRFTISSDNAKNTVYLQNSLKPEDTAVYYCAAGGLHRPLTIATTRGYGIDYWGKGTQVTVSS
notes: from an alpaca immunized with full-length VAR2CSA; pHEN6c vector; also called Nanobody 14; VHH; source: E. coli WK6, periplasmic extract, purified (HisTrap); not shown: His6, C-terminal, kept
B3: Nb10 (VHH)
VHH: QVQLQESGGGLVQAGGSLRLSCAASGRTFSSNLMGWLRQAPGKEREFVAAMSMSGGDTFYADSVKGRFTISRDNAKNMVHLQMNSLKPEDTAIYYCAAADVRLSAYEYDYWGQGTQVTVSS
notes: from an alpaca immunized with full-length VAR2CSA; pHEN6c vector; also called Nanobody 10; VHH; source: E. coli WK6, periplasmic extract, purified (HisTrap); not shown: His6, C-terminal, kept
B4: Nb17 (VHH)
VHH: QVQLQESGGGLVQPGGSLRLSCAASGFTFSGSASWVRQAPGKELEWVSSISGFGGITDYADSVKGRFTISRDNSKNTLYLQNSLKPEDTAVYYCAKGRTGWTSSFLRGQGTQVTVSS
notes: from an alpaca immunized with full-length VAR2CSA; pHEN6c vector; also called Nanobody 17; VHH; source: E. coli WK6, periplasmic extract, purified (HisTrap); not shown: His6, C-terminal, kept
B5: Nb12 (VHH)
VHH: QVQLQESGGGLVQVGGSLRLSCAASGRTFSNYAMGWFRQAPGEEREFVAAISWSDNNTLYTDSVKGRFTISRDNAENTVYLQMNSLEPEDTAVYYCAAGRRPRLRVGLNEFDYWGQGTQVTVSS
notes: from an alpaca immunized with full-length VAR2CSA; pHEN6c vector; also called Nanobody 12; VHH; source: E. coli WK6, periplasmic extract, purified (HisTrap); not shown: His6, C-terminal, kept
B6: Nb07 (VHH)
VHH: QVQLQESGGGLVQAGGSLRLSCAASGFTFDDYVIGWFRQAPGKEREGVSCISRSDGSTYYADSVKGRFTISSDNAKNTIYLQMNSLKPEDTAVYHCAAAMTHFGLGPGPNEYDYWGQGTQVTVSS
notes: from an alpaca immunized with full-length VAR2CSA; pHEN6c vector; also called Nanobody 07; VHH; source: E. coli WK6, periplasmic extract, purified (HisTrap); not shown: His6, C-terminal, kept
B7: Nb01 (VHH)
VHH: QVQLQESGGGLVQAGGSLRLSCAASGRTFNSYVMGWFRQAPGKEREFVAAISWSGGNAYYADSVKGRFTISRDNAENTVYLLMNSLKPEDTAVYYCAAALTRLARNEYDYLGQGTQVTVSS
notes: from an alpaca immunized with full-length VAR2CSA; pHEN6c vector; also called Nanobody 01; VHH; source: E. coli WK6, periplasmic extract, purified (HisTrap); not shown: His6, C-terminal, kept
B8: Nb16 (VHH)
VHH: QVQLQESGGGLVQPGGSLRLSCVASGFTFSSVGSWVRQAPGKGLEWVSAISSFSGLRSYADSVKGRFTISRDNAKNTLYLENSLKPEDTAVYYCAKGTVRVGPWLRGQGTQVTVSS
notes: from an alpaca immunized with full-length VAR2CSA; pHEN6c vector; also called Nanobody 16; VHH; source: E. coli WK6, periplasmic extract, purified (HisTrap); not shown: His6, C-terminal, kept
B9: Nb15 (VHH)
VHH: QVQLQESGGGLVQPGGPLRLSCAASGFTFDNYAMGWFRQAPGKEREFVAAISWSAGTTYYADSVKGRFTISRDNAKNTVSLQMNSLKPEDTAVYYCAAAYDGITMVVEYTNEYEYDYWGQGTQVTVSS
notes: from an alpaca immunized with full-length VAR2CSA; pHEN6c vector; also called Nanobody 15; VHH; source: E. coli WK6, periplasmic extract, purified (HisTrap); not shown: His6, C-terminal, kept
B10: Nb11 (VHH)
VHH: QVQLQESGGGLVQAGGSLRLSCAASGRTFSSYAMGWFRQAPGREREFVALISWSGGSTTYADSVKGRFTISRDNAQNTVYLQMNSLKPEDTAVYYCTAAGSFEGEYDYWGQGTQVTVSS
notes: from an alpaca immunized with full-length VAR2CSA; pHEN6c vector; also called Nanobody 11; VHH; source: E. coli WK6, periplasmic extract, purified (HisTrap); not shown: His6, C-terminal, kept
B11: Nb02 (VHH)
VHH: B10 VHH with R43K, L50F, T59S, Q76K, T97V, A99S
notes: from an alpaca immunized with full-length VAR2CSA; pHEN6c vector; also called Nanobody 02; VHH; source: E. coli WK6, periplasmic extract, purified (HisTrap); not shown: His6, C-terminal, kept
B12: Nb05 (VHH)
VHH: QVQLQESGGGLVQPRGSLRLSCTASERDFGLVVMGWHRQAPGKQRELVAQIGTGGRTNYADSVKGRFTISIDAAKNTVYLQMNNLKPEDTAVYYCNAPLSGIWGQGTQVTVSS
notes: from an alpaca immunized with full-length VAR2CSA; pHEN6c vector; also called Nanobody 05; VHH; source: E. coli WK6, periplasmic extract, purified (HisTrap); not shown: His6, C-terminal, kept
B13: Nb08 (VHH)
VHH: QVQLQESGGGLVQPGGSLRLSCVTSGFTLDYYNIGWFRQAPGKEREGVSCISISDGSTYYADSVKGRFTISRDNAKNTVYLQMNSLKPEDTAVYYCAIRLDGSSCDPEEYDYWGQGTQVTVSS
notes: from an alpaca immunized with full-length VAR2CSA; pHEN6c vector; also called Nanobody 08; VHH; source: E. coli WK6, periplasmic extract, purified (HisTrap); not shown: His6, C-terminal, kept
B14: Nb13 (VHH)
VHH: QVQLQESGGGLVQPGGSLRLSCAFSGRTSRNYAMAWFRQAPGKEREFVAATSWNGDITPYGVVVKGRFTISRDNAKSTVYLKMNDLKPEDTAVYYCAAEPRFAPPVVAHEYDYWGRGTQVTVSS
notes: from an alpaca immunized with full-length VAR2CSA; pHEN6c vector; also called Nanobody 13; VHH; source: E. coli WK6, periplasmic extract, purified (HisTrap); not shown: His6, C-terminal, kept
B15: Nb06 (VHH)
VHH: QVQLQESGGGLVQAGGSLRLSCAASGFTFDDYAIGWFRQAPGKEREGVSCISSSDGVTYYVDSVKGRFTISSDNAKNTVYLQMNSLKPEDTAVYHCAASPDYYCDAGFLNYGIDYWGEGTQVTVSS
notes: from an alpaca immunized with full-length VAR2CSA; pHEN6c vector; also called Nanobody 06; VHH; source: E. coli WK6, periplasmic extract, purified (HisTrap); not shown: His6, C-terminal, kept

The binders below were run against T1, native VAR2CSA on the surface of NF54 infected erythrocytes (Plasmodium falciparum NF54 (VAR2CSA …, UniProt Q8I639, strain)) (assay: flow cytometry on cells; late stage VAR2CSA-expressing IE (FCR3, 7201, NF54) incubated with Nb (0,1 mg/ml), 30 min at 4°C; detected with mouse anti-penta-His and FITC anti-mouse; specific recognition defined by an MFI ratio >1.2). Settings: one partner purified.
T1 construct: VAR2CSA of the P. falciparum parasite line NF54, native protein on infected erythrocytes; also called VAR2CSA-expressing IE (NF54); source: endogenous, on P. falciparum NF54-infected erythrocytes

| Binder | binding result |
| --- | --- |
| B1 | binds |
| B2 | binds |
| B3 | binds |
| B4 | binds |
| B5 | binds |
| B6 | binds |
| B7 | binds |
| B8 | binds |
| B9 | binds |
| B10 | binds |
| B11 | binds |
| B12 | binds |
| B13 | binds |

Each binder was assayed against T2, ID1–ID2a minimal CSA-binding region of VAR2CSA, produced in E. coli (Plasmodium falciparum FCR3, UniProt Q6UDW7, strain) (assay: ELISA; recombinant VAR2CSA protein or domain (50 nM in PBS) coated on MaxiSorp plates overnight at 4°C; Nb 50 nM in 1% skim milk in PBS, 90 min RT; detected with rabbit anti-camel and HRP anti-rabbit, OD 490 nm after 20 min). Settings: both partners purified.
T2 construct: ID1–ID2a region; also called ID1–ID2a (coli); source: E. coli

| Binder | binding result |
| --- | --- |
| B3 | binds |
| B5 | binds |
| B6 | binds |
| B7 | binds |

Each binder was assayed against T3, ID1–ID2a minimal CSA-binding region of VAR2CSA, produced in Schneider 2 (S2) cells (Plasmodium falciparum FCR3, UniProt Q6UDW7, strain) in the same assay as above. Settings: both partners purified.
T3 construct: ID1–ID2a region; also called ID1–ID2a (S2); source: Schneider 2 (S2) cells

| Binder | binding result |
| --- | --- |
| B3 | binds |
| B5 | binds |
| B6 | binds |
| B7 | binds |

These binders were tested against T4, VAR2CSA DBL6 domain, baculovirus-produced (Plasmodium falciparum FCR3, UniProt Q6UDW7, strain) in the same assay as above. Settings: both partners purified.
T4 construct: DBL6 domain; also called DBL6ε; source: baculovirus expression system, as described in [11], [20]

| Binder | binding result |
| --- | --- |
| B3 | no binding (tested: 50 nM) |
| B5 | no binding (tested: 50 nM) |
| B6 | no binding (tested: 50 nM) |
| B7 | no binding (tested: 50 nM) |

Each binder was assayed against T5, VAR2CSA DBL3 domain, baculovirus-produced (Plasmodium falciparum FCR3 (implied), UniProt Q6UDW7, strain) in the same assay as above. Settings: both partners purified.
T5 construct: DBL3 domain; also called DBL3X; source: baculovirus expression system, as described in [11], [20]

| Binder | binding result |
| --- | --- |
| B1 | no binding (tested: 50 nM) |
| B2 | no binding (tested: 50 nM) |
| B14 | no binding (tested: 50 nM) |
| B3 | no binding (tested: 50 nM) |
| B4 | no binding (tested: 50 nM) |
| B5 | no binding (tested: 50 nM) |
| B15 | no binding (tested: 50 nM) |
| B6 | no binding (tested: 50 nM) |
| B7 | no binding (tested: 50 nM) |
| B8 | no binding (tested: 50 nM) |
| B9 | no binding (tested: 50 nM) |
| B10 | no binding (tested: 50 nM) |
| B11 | no binding (tested: 50 nM) |
| B12 | no binding (tested: 50 nM) |
| B13 | no binding (tested: 50 nM) |

What follows are binders tested against T6, DBL1-ID2a protein of VAR2CSA (containing minimal CSA-binding region), baculovirus-produced (Plasmodium falciparum FCR3 (assumed for …, UniProt Q6UDW7, strain)) (assay: far-Western, overlay or dot blot; Western blot: recombinant VAR2CSA domain (0,4 µg/lane) run NON-REDUCED on SDS gel, blotted to nitrocellulose, probed with 50 nM Nb in TBST; rabbit anti-camel and HRP anti-rabbit). Settings: both partners purified.
T6 construct: DBL1-ID2a; source: baculovirus-produced

| Binder | binding result |
| --- | --- |
| B3 | binds |
| B5 | binds |
| B6 | binds |
| B7 | binds |

These binders were tested against T7, full-length VAR2CSA (FV2) recombinant protein, FCR3 (Plasmodium falciparum FCR3, UniProt Q6UDW7, strain) (assay: ELISA; recombinant VAR2CSA protein or domain (50 nM in PBS) coated on MaxiSorp plates overnight at 4°C; Nb 50 nM in 1% skim milk in PBS, 90 min RT; detected with rabbit anti-camel and HRP anti-rabbit, OD 490 nm after 20 min). Settings: both partners purified.
T7 construct: VAR2CSA (PfEMP1 family), Plasmodium falciparum strain FCR3, full-length recombinant protein; also called FV2-FCR3; source: recombinant, purified, expressed as described in [33]

| Binder | binding result |
| --- | --- |
| B1 | binds |
| B2 | binds |
| B14 | binds |
| B3 | binds |
| B4 | binds |
| B5 | binds |
| B15 | binds |
| B6 | binds |
| B7 | binds |
| B8 | binds |
| B9 | binds |
| B10 | binds |
| B11 | binds |
| B12 | binds |
| B13 | binds |

Each binder was assayed against T8, ID1–ID2a minimal CSA-binding region of VAR2CSA, baculovirus-produced (Plasmodium falciparum FCR3, UniProt Q6UDW7, strain) in the same assay as above. Settings: both partners purified.
T8 construct: VAR2CSA, P. falciparum FCR3; ID1–ID2a region encompassing DBL2X with the flanking parts ID1 and ID2; also called ID1–ID2a (BV); source: baculovirus expression system, as described in [11], [20]

| Binder | binding result |
| --- | --- |
| B3 | binds |
| B5 | binds |
| B6 | binds |
| B7 | binds |

Target: T4, VAR2CSA DBL6 domain, …
Assay: as above
Settings: both partners purified
Remark: another data set of the same source

| Binder | binding result |
| --- | --- |
| B15 | binds |
| B9 | binds |
| B13 | binds |
